Assay results taken from PMC9461283 (Biosafety and Health, 2022).

B1: human ACE2 ectodomain (ectoACE2), N-terminal 367 aa (domain or fragment)
chain: QSTIEEQAKTFLDKFNHEAEDLFYQSSLASWNYNTNITEENVQNMNNAGDKWSAFLKEQSTLAQMYPLQEIQNLTVKLQLQALQQNGSSVLSEDKSKRLNTILNTMSTIYSTGKVCNPDNPQECLLLEPGLNEIMANSLDYNERLWAWESWRSEVGKQLRPLYEEYVVLKNEMARANHYEDYGDYWRGDYEVNGVDGYDYSRGQLIEDVEHTFEEIKPLYEHLHAYVRAKLMNAYPSYISPIGCLPAHLLGDMWGRFWTNLYSLTVPFGQKPNIDVTDAMVDQAWDAQRIFKEAEKFFVSVGLPNMTQGFWENSMLTDPGNVQKAVCHPTAWDLGKGDFRILMCTKVTMD
B2: African Green monkey (Chlorocebus sabaeus) ACE2 ectodomain (ectoACE2), N-terminal 367 aa (domain or fragment)
chain: QSTIEEQAKTFLDKFNPEAEDLFYQSSLASWNYNTNITEENVQNMNNAGEKWSAFLKEQSTLAQMYPLQAIQNLTVKLQLQALQQNGSSVLSEDKSKRLNTILNTMSTIYSTGKVCNPNNPQECLLLDPGLNEIMEKSLDYNERLWAWEGWRSEVGKQLRPLYEEYVVLKNEMARANHYKDYGDYWRGDYEVNGVDGYDYNRDQLIEDVERTFEEIKPLYEHLHAYVRAKLMNAYPSYISPTGCLPAHLLGDMWGRFWTNLYSLTVPFGQKPNIDVTDAMVNQAWNAQRIFKEAEKFFVSVGLPNMTQGFWENSMLTDPGNVQKVVCHPTAWDLGKGDFRIIMCTKVTMD

Assays:
[1] = molecular target: SARS-CoV-2 S receptor-binding domain (RBD) (SARS-CoV-2 (isolate Wuhan-Hu-1), UniProt P0DTC2); experiment: SPR
[2] = molecular target: SARS-CoV-2 S receptor-binding domain (RBD) (SARS-CoV-2 (isolate Wuhan-Hu-1), UniProt P0DTC2); experiment: SPR; remark: listed apart in the source

Binder | Kd [1] | Kd [2]
B1 | 61.2 nM | –
B2 | – | 67.6 nM
